Results reported in the supplement of paper PMC9170038.

System: MS2 coat protein
Assay: apparent KD of MS2 coat protein; higher = weaker reporter binding
Conditions: Eterna round: R107
Outline: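 On-chip transcription from Illumina sequencing clusters produced the designed RNA switches. These were titrated with SNAP-549-labelled MS2 coat protein (twofold steps, 0.7 or 1.5 nM to 3 µM) in 100 mM Tris-HCl pH 7.5, 80 mM KCl, 4 mM MgCl2, with or without constant ligand. The apparent KD given is the per-design median of normalised cluster binding-curve fits.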

[1] = input ligand: theophylline 20 uM
[2] = input ligand: tryptophan 2.4 mM
[3] = input ligand: theophylline 2 mM

Sequence	apparent KD of MS2 coat protein (input ligand: arginine 13.2 mM) [nM]	apparent KD of MS2 coat protein [1] [nM]	apparent KD of MS2 coat protein [2] [nM]	apparent KD of MS2 coat protein (input ligand: none) [nM]	apparent KD of MS2 coat protein [3] [nM]
UGGCAGGAGUGAUCCUCCUGCCAAGGUGAUACCAGCAUCGAAAGAUGCCCUUGGCAGCACCAACAUGAGGAUCACCCAUGUAAUA [(MT)''-(M)'-(T')-(Theo)-(Ms2)_Design1/22_10]	34.1	177	104		
UGGUACAUGGCGGCCGCCACUUCACGUAAAAUAAAAGCGUGAGGAUCACCCAUGCAAUAAGUUGGGAGGACCGGGUCAUGUACCU	311	633	244	287	387
UGGUGUAGGGUAAAUAGGAUUAGUACAGAAGGAGCGCGAAUAAACGCAGGUAGGUCGCUGGAAUAAACAUGAGGAUCACCCAUGU [Same State Arginine A GF 27]	17.4	27.4	20.7	19.2	21.5
UGGUGUAGGGUAAAUAGGAUUAGUACAGAAGGAGCGCGAAUAAACGCAGGUAGGUCGCUGGAAUACAUGAGGAUCACCCAUGUUC [Same State Arginine A GF 25]	22.6	24.7	26	22	26.7
UGUACAUAAUUAGGUUACCUAUGUACAGAAGGAGCGUCGAUGACGACAGGUAGGUCGCUGUUAACAUGAGGAUCACCCAUGUACA [Arg A Ex t4]	37.7	46.2	42.4	44.4	57.3
UGUACCAUGUCGGCCGCCACUCAUGAUAAAUAUGAGGAUCACCCAUAUAGCGUCAAAGACGCUAUGAGGACCGGGACAUGGUACU [TryBS Zipper 2]	40.8	50.5	14	41.3	50.4
UGUACUAUGUGAAGGAGCGAGAAUCCUACAUGAGGAUCACCCAUGUAACAGCGAAAGCUGACUCAGGUAGGUCGCACAUAGUACU [ArgBS - First try]	111	115	128	130	144
UGUAUGGACUGAAGGAGCGCCUCAAAAUAACAUGAGGAUCACCCAUGUGGCGAAAGCCUUGGGCAGGUAGGUCGCAGUCCAUACU [ArgBX 1 #StaticStem]	62	76.2	52.9	49.9	72.1
UGUAUGGACUGAAGGAGCGCCUCAAAAUAGCAUGAGGAACACCCAUGCAAGGCGAAAGCCGGGCAGGUAGGUCGCAGUCCAUACU [ArgBX 3]	21	32.2	22.6	20.3	27.2
UGUAUGGACUGAAGGAGCGCCUCAAAAUAGCAUGAGGAUCACCCAUGCAAGGCGAAAGCCGGGCAGGUAGGUCGCAGUCCAUACU [ArgBX 3]	13.5	14	13		14.5
UGUAUGGACUGAAGGAGCGGAAGAUAGCUUGAGGAUCACCCAAGUAAUAAGGCGAAAGCCUUCCAGGUAGGUCGCAGUCCAUACU	31.4	43.1	38.6	35.2	38
UGUAUGGACUGAAGGAGCGGUUGAUAACAUGAGCAUCAGCCAUGUAAUAAGGCGAAAGCCAACCAGGUAGGUCGCAGUCCAUACU	8.26	12.5	14.8	9.68	9.11
UGUAUGUGAUCUGAUACCAGAGUGACGCGAAAGCGAACCUGAGGAUCACCCUGGUAAUAACUCCCUUGGCAGCAGAUCGCAUACU	73.1	44.3	69.8	61.1	20.7
UGUAUGUGAUCUGAUACCAGCGUUGAUAACCUGAGGAUCACCCUGGUAAAGGCGAAAGCCCGCCCUUGGCAGCAGAUCGCAUACU	182	280	787	611	24.9
UGUAUGUGAUCUGAUACCAGCUAGCGGAAACGCAAAAGCUUGAGGAUCACCCAAGUGGAAAGCCCUUGGCAGCAGAUCGCAUACU [Denovo 1 #StaticStem #AlternativeMS2]	17.5	14.7	17.4	15.1	9.89
UGUAUGUGAUCUGAUACCAGUCCAACUGGUAAAACACGAGGAUCACCCGUGUAAAAUUGGGACCCUUGGCAGCAGAUCGCAUACU	70	51.9	87.9	87.5	12.6
UGUAUGUGAUUUGAUACCAGACCAGCGGGUGUUGCAUGAGGAUCACCCAUGUAGGUUUGGGUCCCUUGGCAGCAAAUCGCAUACU [SS Theo B #24 Ms18]	289	438	523	482	127
UGUAUGUGAUUUGAUACCAGUCCAACUGGUAAAACAUGAGGAUCACCCAUGUAAAAUUGGGACCCUUGGCAGCAAAUCGCAUACU [SSTheo B #21]	144	346	534		
UGUCAGCGAAAGUUGACAUGUCUUACCGGUCGAGGACCGGUACGGCCGCCACUCGAUCACUCGCACAUGAGGAUCACCCAUGUCG [SS Tryp A #20]	11.7	14.5			13.9

Sequence	apparent KD of MS2 coat protein (input ligand: arginine 13.2 mM) [nM]	apparent KD of MS2 coat protein [1] [nM]	apparent KD of MS2 coat protein [2] [nM]	apparent KD of MS2 coat protein (input ligand: none) [nM]	apparent KD of MS2 coat protein [3] [nM]
UGUUUGGUGCGCGAGUGUUGGAUAAUUGAUACCAGUGUAGAUGUGCGCCCUUGGCAGCGAAUCCGAACAUGAGGAUCACCCAUGU [5.Z]	41.2	32.3	29.5	27.1	35.7
UUAAUCUUGGUUGAAAACAAUUAAGCAGAAGGAGCGUGAUAAAACACAGGUAGGUCGCUGAAGGGAACAUGAGGAUCACCCAUGU [AstrosSSArgA#14]	25.4	41.1	25.6	26.6	31.6
UUAGAUUGCCGAAGGAGCGAGAUAGCCUACAUGAGGAUCACCCAUGUAGAAACGGGCUGAUCUCAGGUAGGUCGCGGCAGGUAGC [Soaquatan]	84.6	27.4	24.9	26.2	25.8
UUAGUAACGACGGCCGCCACUGAAUUUGAACAUGAGGAUCACCCAUGUAGAGAUCCUAGAAUAAACAGGACCGGGUCUGAUAAUG [Exclusion Tryptophane B GF3]	80.8	139			120
UUAUUUAUAAUGGAUACCAGUCGUAUGGCCCGGCAUCCUGACAUGAGGAUCACCCAUGUCGACCCUUGGCAGCUGUUAUGGGUUU [XTheo B #21]	14.9	17	13.8		
UUCAGACAUGAGGAUCACCCAUGUACUGAAGGAGCGGAUAAAUAUCCAGGUAGGUCGCAGUAUUGAGGGUCUACUUCCAGUCUUA [Rexeesqu]	11.7	12.9	10.1	9.36	10.4
UUCCACCUAAAGCGUUGCCCUCGUGAUGAUACCAGUUUCAGCGGUAACCCUUGGCAGCAUCGGACAUGAGGAUCACCCAUGUGGA [theeternabot_exclusion_MS2_Theo_A_47]	64.9	136	107		
UUCUACAUGAGGAUCACCCAUGUGGGUGAUACCAGCACUUUUUGGUGCCCUUGGCAGCACAUGAGAAUGCCGUAAAAUCGGCGAU [Ceanteis]	74.7	577	503		
UUCUGGACCCGUGAUACCAGAGACAUGAGGAUCACCCAUGUACAUGAGGAUCACCCAUGUCUCCCUUGGCAGCACUGCAGGGAGC [Exclusion Theophylline B GF 14]	45.4	169	133		
UUGACAUGAGGAUCACCCAUGUUAGCUGAAGGAGCGAGGUAGUACUCAGGUAGGUCGCAGAGAGCAGAGUUAGUUGUUCUCAUGU [X-ArgiA-ms2@4]	21.5	28.5	18.6	19.1	23.3
UUGGGUUUGUGAAGGAGCGGGUAUGUUUUCUAGUGGAUCCUAACAUGAGGAUCACCCAUGUCCCAGGUAGGUCGCGCGGGUUUGG [12.U]	64.6	227	81.8	117	99.8
UUGUGGUAGGCGCAUACUCAUUUAUACAAGCGAGGACCGGUACGGCCGCCACUCGGAAUAAAACAUGAGGAUCACCCAUGUACCG [theeternabot_exclusion_MS2_Trp_A_50]	12.9	17.1			14.6
UUGUUGUUUGGAAGGAGCGUGUAUGAUUUAGAACAUGAGGAUCACCCAUGUUGGAGGAUAGCACAGGUAGGUCGCCGGGUGGUGG [11.X]	16.2	23.6	15	13.4	21.4
UUUAUUUAUUUAUUUAUUUAUUUAACAGAAGGAGCGUGGAUUAACACAGGUAGGUCGCUGACAUGAGGAUCACCCAUGUAUUAUU [SSAA #1]	106	48	35.8	28.4	41.6
UUUCAGUGGACGGCCGCCACUGAAGUCGAUACAAUCAUGUAGAACAUGAGGAUCACCCAUGUAGUCAGGACCGGGUCCAAUGACU [Tryp B SS t3]	15.9	21.3	20.5	22.9	22.8
UUUGCACAUGAGGAUCACCCAUGUACAGAUACCAGCCUCAUCUACGGCCCUUGGCAGCUGAGAUAAUGGUGACGUGAUGGGCUUU [Edaniser]	13.5	17.2	11.6		
UUUUAACAUGAGGAUCACCCAUGUAAUGAUACCAGAGACGAAAGUCUCCCUUGGCAGCAUAAUCAUUACAUGAGAUGGAAACAUC [Theophylline A 7]	29.2	48.5	17.5		
UUUUUUAACAUGGCGUAUCGGAAAACCGAUACCAGUACAGAAAUGUACCCUUGGCAGCGGCGUUUUACAUGAGGAUCACCCAUGU [Ex Theophylline A 3]	21.2	65	27.7		
